Measurements taken from the nanobody polyreactivity screen of Harvey et al. (2022).

Assay: yeast display, Sf9 membrane polyspecificity reagent, FACS + sequencing; frameworks hold sequencing errors
Outline: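 Sorting gates, low and high (top ~1%), were placed on anti-HA fluorescence to track expression and on streptavidin fluorescence to track reagent binding. A clone's polyreactivity label is taken from the gate it came out of. The reagent was 10% biotinylated, detergent-solubilized Sf9 membrane, applied for 1 hour at 4 °C to galactose-induced yeast display cells.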

Row | Sequence | polyreactivity (PSR sort gate)
1 | QVQLVESGGGLDQAEGSLRLSCAASGSKINHYARGWYRQAPRKERELVAAITKSGGSTYADSVKGRFTISRDNAKNTVYLKMNSRKPEDTAVYYCAAGRRIYGTKGRGDYWGQGTQVTVSS | low polyreactivity
2 | QVQLVESGGGLDQAGGRLRLSCAASGFTFNYNAMGWYRQATGKERELVAAISRSGGRTYYADSVKGRFTISRDNAKNTVYLQMNSLKPEDTAVYYCAADSGTNGYDYWGQGTQVTVSS | high polyreactivity
3 | QVQLVESGGGLDQAGGSHRLSCAASGRIFTYNAIGWYRQAPGKERELVAAISRRGGTTYYADSVKGRFTISRDNAKNTVYLQMNSLKPEDTAVYYCAAVVFTRGVTSRTVSRYDYWGQGTLVTVSS | high polyreactivity
4 | QVQLVESGGGLDQAGGSLPLSCAASGLTFSSYAMGWYRQAPGKESELVATITSSGGDNTNYADSVKGRFTISRDNAKNTVYLQMNSLKPEDTAVYYCNKEGQQSYRWRMDYWGQGTQVTVSS | low polyreactivity
5 | QVQLVESGGGLDQAGGSLRLICAASGSTFRYNAMGWYRQAPGKERELVAAISSSGGSTRYADSVKGRFTISRDNAKNTVYLQMNSLKPEDTAVYYCAVRFYDWRYYYWGQGTQVTVSS | high polyreactivity
6 | QVQLVESGGGLDQAGGSLRLICAASGTTFSPYAMGWYRQAPGKQRELGANITISGGSTFYADSVKGRFTISRDYAKNTDYLQMKSLKPEDTAVDYCNADSLIRWLFTVVIFDYCGQGTQVTVSS | low polyreactivity
7 | QVQLVESGGGLDQAGGSLRLSCAACGIIFYVYDMGGYRQAPGKERELVPISGSSTYYADSVKGRFTISRDNAKNSVYLQMNSLKPEDTAVYYWSADGVELYDYWGQGTQVTVSS | low polyreactivity
8 | QVQLVESGGGLDQAGGSLRLSCAASGFIFAYNTMGWYRQAPGKERELVATIRWSGGRTYYADSVKGRFTISRDNAKNSVYLQMNSLKPEDTAVYYCAKRAFSYVGGQQDRKENYYYWGQGTQVTVSS | high polyreactivity
9 | QVQLVESGGGLDQAGGSLRLSCAASGFIFTVYAMGWYRQAPGKEREVVAAISSGGSTYYADSVKGRFTISRDNAKNTVYLQMNSLKPEDTADYYCAAQPSYRYYKSYDSWGQGTQVTVSS | high polyreactivity
10 | QVQLVESGGGLDQAGGSLRLSCAASGFTFAYNARGRYRQAPGKERELVAAITTRGGGTYYADSVKGRFTISRDNAKYTVYLQMNSLKPEDTAVYYCAAKKSRYPYNYWGQGTQVTVSS | high polyreactivity
11 | QVQLVESGGGLDQAGGSLRLSCAASGFTFVDYDIGWYRQATGKERELVAAITYSGGSTSYADSVKGRFTISRDNSKTTFYLQMNSLKPEDTAVYYCAGEPVGEIMDYWGQGTQVTVSS | low polyreactivity
12 | QVQLVESGGGLDQAGGSLRLSCAASGIIFYVNDMGWYRQAPGKERELVADISGGTSTNYADSVKGRFTISRDNAKNTVYLQMNSLKPEDTAVYYCATAFIVPFPGSDYCGQGTQVTVSS | low polyreactivity
13 | QVQLVESGGGLDQAGGSLRLSCAASGITVTSYVMGWYRQAHWKERELVAAIRWSGGRTYYADSVKGRFTISRDNAKNTVYLQMNSLKPEDTAVYYCNRVTRSHVDYWGQGTQVTVSS | high polyreactivity
14 | QVQLVESGGGLDQAGGSLRLSCAASGKTFGNYGMGWYRQAPGKERELVAAISWTGGSTYYADSVKGRFTISRDNAKNTVYLQMNSMKPEDTAVYSCNKRPYLLFDYWGQGTQVTVSS | high polyreactivity
15 | QVQLVESGGGLDQAGGSLRLSCAASGLIFYTYAMGWYRQAPGKERELVADINRSDGSTYYADSVKGRFTISRDNAKNTVYLQMNSLKPEDTAVYYCAVVGTYYSRFGGRYYYWGQGTQVTVSS | low polyreactivity
16 | QVQLVESGGGLDQAGGSLRLSCAASGRIFGRNAMGWYRQAPGKERELVAAITWSGGSTNYADSVKGRFTISRDNAKNTVYLEMNSLKPEDTAFYYCAKRYTPRPYKGICYYYWGQGTQVTVSS | high polyreactivity
17 | QVQLVESGGGLDQAGGSLRLSCAASGRIFSPNAMGWYRQAPGKERELVAAISRIGGRTYYADSVKGRFTISRDNAKNTVYLQMNSLKPEDTGVFYCNVVATHTDFTYDFWGQGTQVTVSS | high polyreactivity
18 | QVQLVESGGGLDQAGGSLRLSCAASGRILRGYVMGWYRQAPGKERELVATITGRGGSTYYADSVKGRFTISRDNAKNSVYLQMNSLKPEDPAVYYCNKDGYPYFGRSESWGQGPQVTVSS | low polyreactivity
19 | QVQLVESGGGLDQAGGSLRLSCAASGRTFADYAMGWYRQAPGNERELVADISKRGGSTYFADSVKGRFTISRDNAKNTFYLQMNSLKAEDTAVYYCAAGWYYYPTFYKVKSYNYWGQGTQVTVSS | high polyreactivity
20 | QVQLVESGGGLDQAGGSLRLSCAASGRTFIRNVMGWYRQAPGKERELVAGITGGGNTYYADSVKGRFTISRDNAKNTVYLQMNSLKPEDTAVYYCAVRYPSYGLSYVRYGYWGQGTQVTVSS | high polyreactivity
21 | QVQLVESGGGLDQAGGSLRLSCAASGRTFKWNAIGWYRQAHGKERELVASITSGGSTNYADSVKGRFTISRDNAKNTVYLQMNSLKPEDTAVYYCNAEYYLFKRPYSYYYWGQGTQVTVSS | low polyreactivity
22 | QVQLVESGGGLDQAGGSLRLSCAASGRTFTEYAMGWYRQAPGKERELVARISIGDSTYYADSVKGRFTISRDNAKNTDYLQMNSLKPEDTAVYYCNAEYSRSYRYDEGYWGQGTQVTVSS | low polyreactivity

Row | Sequence | polyreactivity (PSR sort gate)
23 | QVQLVESGGGLDQAGGSLRLSCAASGRTFVYYALGWYRQAPRQERELVAAITWSGGRTYYADSVKGRFTISRDNAKNTVYLQMNSLKPEDTAVYYCNRDQWAWESGYAYNYCGQGTQVTVSS | low polyreactivity
24 | QVQLVESGGGLDQAGGSLRLSCAASGRTFYIYTMGWYRQAPGKERELVAAISSSGDSTYYADSVKGRFTISRDNGKNTVYLQMNSLKPEDTAVYYCAAYATYPDEYWGEGTQVTVSS | low polyreactivity
25 | QVQLVESGGGLDQAGGSLRLSCAASGRTFYYNAMGWYRQAPGKERELVADINWSGVRTYYADSVKGRFTISRDNAKNTVYLQMNSLKPEDTAVYYCAARYRTLTKYYWGQGTQVTVSS | low polyreactivity
26 | QVQLVESGGGLDQAGGSLRLSCAASGSIFDSNAMGWYRQAPGKERELVAAISLSGGSTYYADSVKGRFTISRDNAKNTVYLQMNSLKPEDTAVYYCAKDGWYEYYWGQGTQVTVSS | low polyreactivity
27 | QVQLVESGGGLDQAGGSLRLSCAASGSIFGSYAMGWNTPAPGKERELVAAISVSGGSTYYADSVKGRFTISRYNAKNTVYLQMNSLKPEDTAVYYCAADWQELEYDYWGQGTQVTVSS | low polyreactivity
28 | QVQLVESGGGLDQAGGSLRLSCAASGSIFGSYTMGWYRQAPGKERQLVAVINWSGDRTYYADSVKGRFTISRDNAKNTVYLQMNSLKPEDTAVYYCAARERAGYSRIRYNYWGQGTQGTVSS | high polyreactivity
29 | QVQLVESGGGLDQAGGSLRLSCAASGSIFGYYAMGWYRQAPGKERELVAAISRSGGSTYYADSVKGRFTISRDNAKNTVYLQMNSLKPEDTAVYYCAARPPYRVGIVPLGRREYYWGQGTQVTVSS | high polyreactivity
30 | QVQLVESGGGLDQAGGSLRLSCAASGSIFNYKAMGWYRQAPGKEREMVAGISYHGDSTYADSVKGPFTISRDNAKNTVYLQMKSLKPEDTAVYYCAALGPDDWLWAGDYWGQGTQVTVSS | low polyreactivity
31 | QVQLVESGGGLDQAGGSLRLSCAASGSIFSDNVMGWYRQAPGKERELVAAIRDGDTTNYADSVKGRFTISRDNAKNTVYLQMNSLKPEDTAVYYCAAVQDSSPDYSYAYLDGDRDYWGQGTQVTVSS | low polyreactivity
32 | QVQLVESGGGLDQAGGSLRLSCAASGSIFSGYAMGWYRQAPGKERELVAGISSRGGRTYYADSVKGRFTISRDNAKNTVYLQMNSLKPEDTAVYYCAARWSRSRTSDRYNYWGQGTQVTVSS | high polyreactivity
33 | QVQLVESGGGLDQAGGSLRLSCAASGSIFTVNAMGWYRQAPGKERELVAAIDGSSGSTNYADSVKGRFTISRDNAKNTVYLQMNSLKPEDTAVYFCAADWSYEYGYWGQGTQVTVSS | low polyreactivity
34 | QVQLVESGGGLDQAGGSLRLSCAASGSILVSNDMGWYRQAPGKERELVAAISWSGGSTYYADSVKGRFTISRDNAKNTVYLQMNSLKPEDTAVYYCAAGFGFLFARQELDFDYWGQGTQVTVSS | low polyreactivity
35 | QVQLVESGGGLDQAGGSLRLSCAASGSLFARNTMGGYRQAPGKERELVATITARGGSTYADSVKGRFTISRDNAKNTVYLQMNSLKPEDTAVYYCNADYGLFSRATFYGYDYWGQGTQVTVSS | low polyreactivity
36 | QVQLVESGGGLDQAGGSLRLSCAASGSTFKPNVMGWYRQAPGEERELVAAISSRGGRTYYADSVKGRFTISRDNEKNNVYLQMNRLKPEDTAVYYCAALYLATGVDKAFDSWGQGTQVTVSS | high polyreactivity
37 | QVQLVESGGGLDQAGGSLRLSCAASGSTFKWNAMGWYRQAPGKERELVAAISKGSVNTYYADSVKGRFTISRDNAKNTVYLQMNSLKPEDTAVYYCAADRRYPALDYWGQGTQVTVSS | high polyreactivity
38 | QVQLVESGGGLDQAGGSLRLSCAASGSTFQVNVMAWYRQAPGKEREFVAGISYSGGSTYYADSVKGRFTISRDNAKNTVYLQMNSLKPEDTAVYYCAAEEDYNIAGSWTYTYDYWGQGTQVTVSS | low polyreactivity
39 | QVQLVESGGGLDQAGGSLRLSCAASGSTFSGYAMGWYRQAPGKERELVATITRRGGNTYYADSVKGRFTISRDNAKNTVYLQMNSLKPEDTAVYYCAKDGRVHSPYDYWGQGTQVTVSS | low polyreactivity
40 | QVQLVESGGGLDQAGGSLRLSCAASGSTFSIYTMGWYRQAPGKEREFVAAITYIGGRTYYADSVKGRFTISRDNAKNTVYLQMNSLKPEDTAVYYCAADWAYYVASYLYYTFDYWGQGTQVTVSS | low polyreactivity
41 | QVQLVESGGGLDQAGGSLRLSCAASGSTFWGYTMGWYRQAPGKERELVAAITSGGSTNYADSVKGRFTISRDNAKNTVYLQMYSLKPEDTAVYYCNAVYPGRRRYRKWYIYDYWGQGTQVTVSS | high polyreactivity
42 | QVQLVESGGGLDQAGGSLRLSCAASGSTFYYNTMGWYRQAPGKERELVAAISWRGVSTYYADSVKGRFTISRDNAKNTVYLQMNSLKPEDTAVYYCNAVHHYPEHIGGGYWGQGTQVTVSS | low polyreactivity
43 | QVQLVESGGGLDQAGGSLRLSCAASGSTFYYYAMGWYRQAPGKERELVASISDDGSTNYADSVKGRFTISRDNAKNTVYLQMNSLKPEDTAVYYCAAVWWHQFGSAWYQMGYWGQGTQVTVSS | low polyreactivity
